Measurements reported in patent US20120244560A1 (ISHIHARA SANGYO, published 2012).

B1: monoclonal antibody produced by hybridoma ISK-MMH-TK2 (antibody, V domains shown)
VH: DVQLQDSGPGLVKPSQTVSLTCTVTGISITTGNFRWSWIRQFPGNKLEWIGYIYYSGTITYNPSLTSRTTITRDTSKNQFFLEMNSLTAEDTATYYCARELYGYGYFDVWAAGTTVTVSS
VL: DVVMTQIPLSLPVSLGDQASISCRSTQSLVHSNGNTYLHWFLQKPGQSPKLLIYKVSNRFSGVPDRFSGSGSGTDFTLKISRVEAEDLGVYFCSQSKYVPRTFGGGTKLEIKR
notes: used as hybridoma culture supernatant; The whole entries are named; they hold leader and primer-derived residues, X and *; also called FERM BP-11266
B2: HIG-1-Flag (human HIG-1 polypeptide with a Flag tag downstream, made in E. coli as GST-HIG-1-Flag, GST cleaved off with PreScission Protease) (other, UniProt Q9Y241 1-93, looked up)
chain: MSTDTGVSLPSYEEDQGSKLIRKAKEAPFVPVGIAGFAAIVAYGLYKLKSRGNTKMSIHLIHMRVAAQGFVVGAMTVGMGYSMYREFWAKPKP
notes: Expressed from pGST-HIG-1-Flag (pGEX 6P-1); also called HIG-1-Flag protein; not shown: Flag tag downstream of HIG-1
B3: monoclonal antibody produced by hybridoma ISK-MMH-TK1 (antibody, V domains shown)
VH: EVQLQQSGPELVKPGASVKISCKTSGYTFTKYTMHWVKQSHGKSLEWIGGINPNNGGSRYDQKFRGKATLTVDKSSSTAYMEFRSLTSEDSAVYYCARDFVYWGQGTLVTVSA
VL: DVLMTQTPLSLPVSLGDQASISCRSSQSIVHSNGNTYLEWYLQKPGQSPKLLIYKVSNRFSGVPDRFSGSGSGTDFTLKISRVEAEDLGVYYCFQGSHVPWTFGGGTKLEIKR
notes: used as hybridoma culture supernatant; The whole entries are named; they hold leader and primer-derived residues, X and * that are not part of the mature antibody; also called FERM BP-11267

How the values were obtained:
[1] = molecular target: B2; assay: competitive ELISA, coated HIG-1-Flag, soluble HIG-1-Flag as competitor
Protocol: Specifically, the HIG-1-Flag obtained in Example 2 as a solid-phase antigen was coated at a concentration of 2.5 μg/mL (50 mM carbonate buffer solution, pH 9.6, Sigma, No. C3041) in an amount of 50 μL per well, onto a plate at room temperature for 1 hour. Washing was performed 3 times with PBS-T, and then blocking was conducted with PBS (10% FBS-PBS) containing 10% FBS for 1 hour. After washing was performed 3 times with PBS-T, the PBS-T diluent of the antibody culture supernatant obtained in Example 1 was mixed with a diluted solution of a competitive substance (serial dilution with PBS-T) and reacted at room temperature for 1 hour. The reaction mixture was placed in a plate in an amount of 50 W., per well and allowed to stand for 1 hour at room temperature. […] After reaction, the 405 nm absorbance was measured.
These antibodies were both capable of quantitatively measuring a HIG-1-Flag in the range of 0.7 to 6.2 ng/mL. The dissociation constant Kd of the monoclonal antibody to a HIG-1-Flag was calculated with reference to “Antibody engineering; A Practical Approach” (edited by McCafferty J., et al.), Chapter 4, 77-97, IRL Press Oxford.

[2] = molecular target: B1; assay: competitive ELISA: HIG-1-Flag coated at 2.5 µg/mL, ISK-MMH-TK2 culture supernatant (diluted 3,200-fold) premixed with soluble HIG-1-Flag as competing agent, AP-labelled anti-mouse IgG, A405nm
Protocol: Specifically, the HIG-1-Flag obtained in Example 2 as a solid-phase antigen was coated at a concentration of 2.5 μg/mL (50 mM carbonate buffer solution, pH 9.6, Sigma, No. C3041) in an amount of 50 μL per well, onto a plate at room temperature for 1 hour. Washing was performed 3 times with PBS-T, and then blocking was conducted with PBS (10% FBS-PBS) containing 10% FBS for 1 hour. After washing was performed 3 times with PBS-T, the PBS-T diluent of the antibody culture supernatant obtained in Example 1 was mixed with a diluted solution of a competitive substance (serial dilution with PBS-T) and reacted at room temperature for 1 hour. The reaction mixture was placed in a plate in an amount of 50 W., per well and allowed to stand for 1 hour at room temperature. […] As competitive substances, a HIG-1-Flag (on which 3-fold serial dilution was performed 8 times from 0.167 μg/mL), KLH (on which 3-fold serial dilution was performed 8 times from 100 μg/mL), or GST (on which 3-fold serial dilution was performed 8 times from 100 μg/mL) was used. After washing was performed using PBS-T 3 times, the alkaline phosphatase-labeled secondary antibody (anti-mouse IgG) diluted 1,000-fold with 10% FBS-PBS-T was placed in an amount of 50 per well and allowed to stand at room temperature for 1 hour. […] After reaction, the 405 nm absorbance was measured.

Row | Binder | Kd [1] | IC50 (read off the curve) [2]
1 | B1 | 0.17 nM | 
2 | B2 |  | ~2 ng/mL
3 | B3 | 0.22 nM | 
